Test results: publication PMC4195440

Target: Siglec-10 receptor overexpressed on CHO cells (UniProt Q96LC7)
Sequence of UniProt Q96LC7 (Q96LC7 17-697): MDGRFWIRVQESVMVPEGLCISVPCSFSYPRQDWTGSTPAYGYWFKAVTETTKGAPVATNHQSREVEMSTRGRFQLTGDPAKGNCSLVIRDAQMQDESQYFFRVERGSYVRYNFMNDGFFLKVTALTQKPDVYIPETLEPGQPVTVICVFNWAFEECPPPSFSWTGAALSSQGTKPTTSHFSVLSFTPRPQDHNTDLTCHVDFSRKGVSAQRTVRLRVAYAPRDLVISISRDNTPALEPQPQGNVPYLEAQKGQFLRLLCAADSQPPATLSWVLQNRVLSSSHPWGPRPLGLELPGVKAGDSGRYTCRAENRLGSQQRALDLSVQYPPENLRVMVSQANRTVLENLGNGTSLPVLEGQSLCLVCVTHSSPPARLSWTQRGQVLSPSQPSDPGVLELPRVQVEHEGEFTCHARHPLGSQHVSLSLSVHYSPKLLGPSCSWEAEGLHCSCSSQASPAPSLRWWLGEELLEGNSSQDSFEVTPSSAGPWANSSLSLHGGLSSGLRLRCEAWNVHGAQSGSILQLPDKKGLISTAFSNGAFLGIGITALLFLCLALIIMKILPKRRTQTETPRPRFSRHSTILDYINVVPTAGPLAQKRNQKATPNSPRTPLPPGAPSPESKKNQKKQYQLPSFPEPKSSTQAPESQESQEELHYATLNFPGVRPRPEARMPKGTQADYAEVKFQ

For “flagella (flagellin FlaA) of C. jejuni 11168H WT (from UniProt P56963 1-572) (natural protein)”, the IL-10 secretion (ELISA) of Siglec-10 transduced RAW264.7 cells against GFP control-transduced cells, infection with live 11168H WT, MOI 100, 24 hours was 2 fold.
